Test [1] addresses T1, integrin αVβ3 (Homo sapiens, UniProt P05106+P06756).
T1 construct: purchased R&D System; Minneapolis, MN, USA
In words: Competition study, 125ISIB-echistatin vs ligands on coated αVβ3. Conditions: competition with 8 nM 125ISIB-echistatin, recombinant human αVβ3 coated at 1.8 µg/mL, IBB pH 7.4 / 0.5% BSA, 2 h room temperature, duplicate wells. The test is classed as binding. The protocol: (§1) A competition study was performed to investigate the interaction of VTN(381–397 a.a.) with five different integrins. Radiolabeled echistatin, a disintegrin known to bind integrin receptors, was used as a tracer for the binding assays. Lyophilized echistatin was provided by Bachem (Bubendorf, Switzerland) and radiolabeled by conjugation with a radioiodinated benzoate (^125ISIB) to the epsilon amino group of lysine side chains. For the five integrins, α5β1, αVβ1, αVβ3, αVβ5, and αVβ6 (R&D System; Minneapolis, MN, USA), a solution at 1.8 µg/mL was prepared with integrin-binding buffer (IBB; 20 mM Tris pH 7.4, 150 mM NaCl, 2 mM CaCl2, 1 mM MgCl2, 1 mM MnCl2). Nunc Maxisorp Module plates were coated overnight at 4 °C with integrin complex at 1.8 µg/mL. […] After rinsing, bound radioactivity was quantified using a gamma counter. The percentage of relative binding of radiolabeled echistatin was calculated as follows: radioactivity in the test well*100/radioactivity in the reference well. […] For comparison of the potency of ligands in inhibiting bound ^125ISIB-echistatin for different integrin complexes, the half-maximal inhibitory concentration (IC50) was calculated. The IC50 value was determined by constructing a dose–response curve and examining the effect of different concentrations of ligands on ^125ISIB-echistatin binding. […]

Test [2] concerns the target T2, integrin αVβ5 (Homo sapiens, UniProt P06756+P18084).
T2 construct: purchased R&D System; Minneapolis, MN, USA
Nature of the test: Saturation assay with radiolabeled echistatin, αVβ5. The test is classed as binding. Conditions: increasing radiolabeled echistatin, integrin coated at 1.8 µg/mL. As for the experimental part: (§2) To determine if VTN(381–397 a.a.) could interact with integrins, we investigated its ability to compete with radiolabeled echistatin for binding to five different integrin complexes: α5β1, αVβ1, αVβ3, αVβ5 and αVβ6. We also tested the binding affinity of the whole VTN protein and another VTN fragment, VTN(365–381 a.a), as previously described by Maile et al.,[33]. First, the binding affinity of echistatin to the five integrins was measured by determining the equilibrium dissociation constant (KD). KD was evaluated by saturation assays involving addition of increasing concentrations of radiolabeled echistatin to a constant concentration of integrins (coated at 1.8 µg/mL). […] Subsequently, competitive experiments were performed using increasing concentrations of ligand and a fixed amount of radiolabeled echistatin. The fixed concentration of radiolabeled echistatin was determined according to its KD value. For each ligand concentration, the relative binding of ^125ISIB-echistatin to coated integrins was then measured, and values were plotted versus the logarithm of ligand concentration.

The target in test [3] is T3, integrin α5β1 (Homo sapiens, UniProt P05556+P08648).
T3 construct: purchased R&D System; Minneapolis, MN, USA
T3 sequence (P08648 42-995 limits assumed): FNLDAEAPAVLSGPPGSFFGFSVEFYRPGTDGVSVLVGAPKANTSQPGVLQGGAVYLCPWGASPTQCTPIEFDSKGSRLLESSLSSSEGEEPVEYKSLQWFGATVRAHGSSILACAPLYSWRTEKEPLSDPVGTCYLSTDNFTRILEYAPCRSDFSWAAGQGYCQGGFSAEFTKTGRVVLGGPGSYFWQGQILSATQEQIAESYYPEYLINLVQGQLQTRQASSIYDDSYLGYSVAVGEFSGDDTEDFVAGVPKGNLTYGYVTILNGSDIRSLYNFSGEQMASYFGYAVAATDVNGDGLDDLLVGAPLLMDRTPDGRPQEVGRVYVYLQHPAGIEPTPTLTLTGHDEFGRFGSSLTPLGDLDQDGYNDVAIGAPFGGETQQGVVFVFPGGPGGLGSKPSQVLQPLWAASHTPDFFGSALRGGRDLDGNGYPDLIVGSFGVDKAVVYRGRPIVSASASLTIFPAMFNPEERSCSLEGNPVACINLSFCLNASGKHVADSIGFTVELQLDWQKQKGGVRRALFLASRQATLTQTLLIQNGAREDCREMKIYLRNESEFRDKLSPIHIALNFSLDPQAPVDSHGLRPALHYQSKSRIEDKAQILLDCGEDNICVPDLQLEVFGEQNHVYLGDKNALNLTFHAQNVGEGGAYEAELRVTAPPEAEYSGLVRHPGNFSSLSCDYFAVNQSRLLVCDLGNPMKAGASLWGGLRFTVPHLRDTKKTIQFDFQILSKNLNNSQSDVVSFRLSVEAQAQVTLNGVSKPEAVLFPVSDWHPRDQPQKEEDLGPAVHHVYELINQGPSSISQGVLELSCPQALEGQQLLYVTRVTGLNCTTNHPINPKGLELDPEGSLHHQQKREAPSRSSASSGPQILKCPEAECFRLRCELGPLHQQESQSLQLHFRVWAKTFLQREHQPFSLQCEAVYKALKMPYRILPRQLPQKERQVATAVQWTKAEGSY
T3 sequence (P05556 21-728 limits assumed): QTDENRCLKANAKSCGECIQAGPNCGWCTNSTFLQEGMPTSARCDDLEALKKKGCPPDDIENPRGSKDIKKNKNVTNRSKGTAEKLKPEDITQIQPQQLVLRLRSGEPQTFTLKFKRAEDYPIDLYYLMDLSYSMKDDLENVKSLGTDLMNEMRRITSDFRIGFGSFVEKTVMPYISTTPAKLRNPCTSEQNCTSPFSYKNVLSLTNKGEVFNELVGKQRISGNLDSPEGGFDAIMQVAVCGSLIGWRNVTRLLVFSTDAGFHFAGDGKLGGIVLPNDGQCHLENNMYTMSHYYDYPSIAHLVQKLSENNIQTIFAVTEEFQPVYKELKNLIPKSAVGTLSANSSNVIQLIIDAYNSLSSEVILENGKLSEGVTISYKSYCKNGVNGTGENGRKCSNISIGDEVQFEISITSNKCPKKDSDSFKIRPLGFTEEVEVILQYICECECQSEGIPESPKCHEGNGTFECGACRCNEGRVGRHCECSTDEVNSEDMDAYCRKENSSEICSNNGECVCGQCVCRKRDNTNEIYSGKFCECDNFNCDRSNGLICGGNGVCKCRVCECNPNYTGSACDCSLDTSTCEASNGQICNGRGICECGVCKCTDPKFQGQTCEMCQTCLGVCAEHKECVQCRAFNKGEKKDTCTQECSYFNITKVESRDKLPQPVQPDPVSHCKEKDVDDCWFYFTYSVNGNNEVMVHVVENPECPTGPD
Nature of the test: Saturation assay with radiolabeled echistatin, α5β1. The format is binding. The following applies: increasing radiolabeled echistatin, integrin coated at 1.8 µg/mL. As for the experimental part:
as §2

For test [4], the target named is T4, integrin αVβ1 (Homo sapiens, UniProt P05556+P06756).
T4 construct: purchased R&D System; Minneapolis, MN, USA
T4 sequence (P06756 31-992 limits assumed): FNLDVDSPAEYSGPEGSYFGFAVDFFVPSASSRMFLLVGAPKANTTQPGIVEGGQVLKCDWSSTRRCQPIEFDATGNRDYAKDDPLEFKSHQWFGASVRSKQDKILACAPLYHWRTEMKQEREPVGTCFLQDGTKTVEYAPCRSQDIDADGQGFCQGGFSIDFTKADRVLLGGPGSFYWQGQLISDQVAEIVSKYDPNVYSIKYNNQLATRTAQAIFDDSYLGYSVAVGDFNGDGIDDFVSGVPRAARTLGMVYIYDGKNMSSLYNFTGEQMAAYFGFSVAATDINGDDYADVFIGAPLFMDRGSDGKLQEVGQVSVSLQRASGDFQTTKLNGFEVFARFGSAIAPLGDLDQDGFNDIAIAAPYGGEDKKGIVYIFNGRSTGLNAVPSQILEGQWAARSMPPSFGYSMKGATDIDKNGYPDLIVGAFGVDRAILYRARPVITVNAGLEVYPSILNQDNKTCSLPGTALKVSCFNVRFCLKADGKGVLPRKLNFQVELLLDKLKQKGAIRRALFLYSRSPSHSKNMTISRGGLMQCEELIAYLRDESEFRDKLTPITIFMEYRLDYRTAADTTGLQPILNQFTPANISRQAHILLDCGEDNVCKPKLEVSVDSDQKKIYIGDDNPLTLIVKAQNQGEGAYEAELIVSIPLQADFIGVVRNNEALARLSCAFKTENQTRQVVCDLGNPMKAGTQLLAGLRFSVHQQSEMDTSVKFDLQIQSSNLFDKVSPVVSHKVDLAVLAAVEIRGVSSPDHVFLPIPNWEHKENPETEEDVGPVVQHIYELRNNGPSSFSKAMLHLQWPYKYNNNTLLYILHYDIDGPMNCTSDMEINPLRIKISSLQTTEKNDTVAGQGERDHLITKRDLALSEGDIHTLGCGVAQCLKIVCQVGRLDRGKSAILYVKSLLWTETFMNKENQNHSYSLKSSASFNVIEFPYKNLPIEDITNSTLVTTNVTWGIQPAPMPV
T4 sequence (P05556 21-728 limits assumed): as the sequence (P05556 21-728 limits assumed) above
In words: Saturation assay with radiolabeled echistatin, αVβ1. The test is classed as binding. Conditions: increasing radiolabeled echistatin, integrin coated at 1.8 µg/mL. The protocol:
as §2

In test [5] the target is T2, integrin αVβ5. In words: Competition study, 125ISIB-echistatin vs ligands on coated αVβ5. The format is binding. The following applies: competition with 8 nM 125ISIB-echistatin, recombinant human αVβ5 coated at 1.8 µg/mL, IBB pH 7.4 / 0.5% BSA, 2 h room temperature, duplicate wells. The protocol:
as §1

In test [6] the target is T4, integrin αVβ1. In words: Competition study, 125ISIB-echistatin vs ligands on coated αVβ1. The format is binding. The following applies: competition with 4 nM 125ISIB-echistatin, recombinant human αVβ1 coated at 1.8 µg/mL, IBB pH 7.4 / 0.5% BSA, 2 h room temperature, duplicate wells. As for the experimental part: as §1
Test [7] has as its target T1, integrin αVβ3. Nature of the test: Saturation assay with radiolabeled echistatin, αVβ3. The format is binding. The following applies: increasing radiolabeled echistatin, integrin coated at 1.8 µg/mL. The protocol:
as §2

For test [8], the target named is T5, integrin αVβ6 (Homo sapiens, UniProt P06756+P18564).
T5 construct: purchased R&D System; Minneapolis, MN, USA
T5 sequence (P06756 31-992 limits assumed): as the sequence (P06756 31-992 limits assumed) above
T5 sequence (P18564 22-707 limits assumed): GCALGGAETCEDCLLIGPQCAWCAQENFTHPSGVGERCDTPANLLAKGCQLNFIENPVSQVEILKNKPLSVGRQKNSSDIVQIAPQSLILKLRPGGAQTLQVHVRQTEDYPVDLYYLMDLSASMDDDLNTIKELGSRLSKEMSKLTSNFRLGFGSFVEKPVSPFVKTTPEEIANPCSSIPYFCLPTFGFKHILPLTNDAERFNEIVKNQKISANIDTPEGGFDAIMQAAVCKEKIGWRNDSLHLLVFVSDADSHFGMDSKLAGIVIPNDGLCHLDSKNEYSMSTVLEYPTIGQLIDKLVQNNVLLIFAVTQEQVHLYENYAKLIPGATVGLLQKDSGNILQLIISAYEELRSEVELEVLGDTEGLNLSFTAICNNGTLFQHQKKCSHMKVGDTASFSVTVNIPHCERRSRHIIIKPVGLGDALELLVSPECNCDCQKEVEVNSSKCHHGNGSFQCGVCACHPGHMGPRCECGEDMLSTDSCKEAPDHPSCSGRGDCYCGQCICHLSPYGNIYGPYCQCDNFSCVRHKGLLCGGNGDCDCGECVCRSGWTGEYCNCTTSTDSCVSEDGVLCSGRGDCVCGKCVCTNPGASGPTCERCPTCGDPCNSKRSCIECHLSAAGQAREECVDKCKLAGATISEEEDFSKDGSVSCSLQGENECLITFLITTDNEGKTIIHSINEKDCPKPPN
In words: Saturation assay with radiolabeled echistatin, αVβ6. The format is binding. Conditions: increasing radiolabeled echistatin, integrin coated at 1.8 µg/mL. The protocol:
as §2

The target of test [9] is T3, integrin α5β1. In words: Competition study, 125ISIB-echistatin vs ligands on coated α5β1. The test is classed as binding. The following applies: competition with 4 nM 125ISIB-echistatin, recombinant human α5β1 coated at 1.8 µg/mL, IBB pH 7.4 / 0.5% BSA, 2 h room temperature, duplicate wells. As for the experimental part: as §1
Test [10] deals with T5, integrin αVβ6. Nature of the test: Competition study, 125ISIB-echistatin vs ligands on coated αVβ6. The format is binding. The following applies: competition with 20 nM 125ISIB-echistatin, recombinant human αVβ6 coated at 1.8 µg/mL, IBB pH 7.4 / 0.5% BSA, 2 h room temperature, duplicate wells, gamma counter, five-parameter logistic. The protocol: as §1, with “µg/mL. After the wells were washed with sample buffer (IBB, 0.5% BSA), blocking solution (IBB, 2% BSA) was added, and the microplate was incubated for 2 h at room temperature. The wells were then washed three times with IBB/0.5% BSA. Then, ^125ISIB-echistatin was diluted in sample buffer to fixed concentrations of 4, 4, 8, 8, and 20 nM for α5β1, αVβ1, αVβ3, αVβ5, and αVβ6 competition studies, respectively. The ^125ISIB-echistatin was mixed with sample buffer at a ratio of 1:1 (total binding = control well) or with increasing concentrations of ligands (Supplementary information SI1) [complete VTN, VTN(381–397 a.a.), VTN(365–381 a.a.)] at a ratio 1:1 and added to wells in duplicate. We used 1,4,7-triazacyclononane-1,4,7-triacetic acid (NOTA) as a negative control.” for “µg/mL.”
To determine if VTN(381–397 a.a.) could interact with integrins, we investigated its ability to compete with radiolabeled echistatin for binding to five different integrin complexes: α5β1, αVβ1, αVβ3, αVβ5 and αVβ6. […] First, the binding affinity of echistatin to the five integrins was measured by determining the equilibrium dissociation constant (KD). […] The fixed concentration of radiolabeled echistatin was determined according to its KD value. For each ligand concentration, the relative binding of ^125ISIB-echistatin to coated integrins was then measured, and values were plotted versus the logarithm of ligand concentration.

The test system of test [11] is latent TGF-β1 activation (αVβ6 on human FLSs; PAI-1 promoter-luciferase in TMLCs). In words: TGF-β luciferase bioassay, TMLC + FLS coculture, activation of latent TGF-β1. The test is classed as cell-based, human FLSs; mink lung epithelial reporter cells. The following applies: peptide 50 ng/mL, 200 ng/mL latent TGF-β1, TMLC + FLS coculture, 16 h, n = 6 donors in triplicate, paired Wilcoxon. The protocol:
Transformed mink lung epithelial cells (TMLCs), a generous gift from Prof. DB Rifkin (Department of Cell Biology, NYU School of Medicine, New York, NY), were used to test TGF-β1 functionality. TMLCs were cultured in DMEM supplemented with 10% FBS, 1% Pen/Strep, and 1 mg/mL G418 Sulfate (Biowest; Riverside, MO, USA). For coculture, TMLCs were plated in 96-well plates at a density of 10^4 cells per well, and fibroblasts were added at a density of 1.5 × 10^4 cells per well, with a final volume of 100 μL. Cells were allowed to attach at 37 °C and 5% CO2. After 6 h, the medium was removed and replaced by the different treatments diluted in medium with 0.1% BSA without FBS (final volume of 100 μL).
For function-blocking experiments, cells were incubated with anti-αVβ6 antibody (clone 10D5; Merck) or with the isotype control IgG2a kappa (clone eBM2a; Thermo Fisher Scientific) for 20 min at room temperature at a concentration of 50 μg/mL in medium containing 1 mM MgCl2/0.1% BSA before adding other compounds. […] Luciferase activity was assessed by plate-reading luminometers with an injector (Victor™ X3; PerkinElmer Waltham, MA, USA) adding 100 µl of luciferase assay reagent (Promega) per well. […]
The data are expressed as relative luciferase activity (RLA). RLA is the measured luciferase activity of the coculture divided by the activity of the related control alone under the same conditions. […]

Ends that are not written are not given here.

T1 sequence (P06756 31-992 limits assumed): as the sequence (P06756 31-992 limits assumed) above
T1 sequence (P05106 27-718 limits assumed): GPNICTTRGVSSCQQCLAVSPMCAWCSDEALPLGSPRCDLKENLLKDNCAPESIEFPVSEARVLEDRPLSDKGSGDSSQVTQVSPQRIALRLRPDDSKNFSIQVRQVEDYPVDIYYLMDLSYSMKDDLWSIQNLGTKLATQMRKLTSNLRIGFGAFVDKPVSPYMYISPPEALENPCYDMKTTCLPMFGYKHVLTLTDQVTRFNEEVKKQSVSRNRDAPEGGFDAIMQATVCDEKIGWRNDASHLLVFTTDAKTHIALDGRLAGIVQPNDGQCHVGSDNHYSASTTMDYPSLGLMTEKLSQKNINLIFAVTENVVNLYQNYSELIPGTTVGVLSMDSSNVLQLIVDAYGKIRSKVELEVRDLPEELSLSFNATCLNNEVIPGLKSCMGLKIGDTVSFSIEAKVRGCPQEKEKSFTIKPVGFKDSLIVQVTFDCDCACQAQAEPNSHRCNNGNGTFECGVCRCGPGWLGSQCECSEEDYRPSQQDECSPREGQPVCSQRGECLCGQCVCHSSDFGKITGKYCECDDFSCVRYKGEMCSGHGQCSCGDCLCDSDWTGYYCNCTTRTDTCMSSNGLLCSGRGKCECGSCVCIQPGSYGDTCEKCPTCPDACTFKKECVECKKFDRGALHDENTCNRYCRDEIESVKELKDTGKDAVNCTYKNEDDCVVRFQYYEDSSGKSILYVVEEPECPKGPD
T2 sequence (P06756 31-992 limits assumed): as the sequence (P06756 31-992 limits assumed) above
T2 sequence (P18084 24-719 limits assumed): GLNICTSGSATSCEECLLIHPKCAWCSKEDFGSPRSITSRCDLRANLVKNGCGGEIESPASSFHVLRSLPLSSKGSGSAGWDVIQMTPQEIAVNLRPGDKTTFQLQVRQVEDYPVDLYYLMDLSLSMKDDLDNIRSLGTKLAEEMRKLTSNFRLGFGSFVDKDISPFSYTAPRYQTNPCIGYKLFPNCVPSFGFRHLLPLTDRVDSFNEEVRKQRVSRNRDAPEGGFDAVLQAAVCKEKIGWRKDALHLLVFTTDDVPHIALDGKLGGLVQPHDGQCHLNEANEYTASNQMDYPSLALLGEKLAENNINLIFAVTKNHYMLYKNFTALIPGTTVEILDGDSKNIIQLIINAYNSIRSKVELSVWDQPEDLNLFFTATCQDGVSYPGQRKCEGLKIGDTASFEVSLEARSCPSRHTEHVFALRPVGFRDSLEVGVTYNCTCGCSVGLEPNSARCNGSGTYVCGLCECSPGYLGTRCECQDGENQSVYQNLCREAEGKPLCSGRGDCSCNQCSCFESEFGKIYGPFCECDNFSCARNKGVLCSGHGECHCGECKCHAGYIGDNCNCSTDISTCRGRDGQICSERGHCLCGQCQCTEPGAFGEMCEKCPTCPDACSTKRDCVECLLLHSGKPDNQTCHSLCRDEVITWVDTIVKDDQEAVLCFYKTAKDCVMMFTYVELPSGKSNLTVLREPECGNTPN

With “Echistatin (QCESGPCCRNCKFLKEGTICKRARGDDMDDYCNGKTCDCPRNPHKGPAT; disulfide (positions not given here); not fully specified (bridges); also: Lys ε-amino groups conjugated with 125I-iodobenzoate (125ISIB), positions not given here) [tracer radiolabeled with radioiodinated benzoate (125ISIB) at lysine side chains]”, the 50% inhibitory concentration (IC50) with integrin αVβ3 [1] stood at 3.7 nM; in the test with integrin αVβ5 [5], 4 nM; with integrin αVβ1 [6] it was 1.5 nM; with integrin α5β1 [9], 2 nM; with integrin αVβ6 [10], 14 nM. The Kd with integrin αVβ5 [2] came to 3.46 nM; with integrin α5β1 [3], 1.48 nM; with integrin αVβ1 [4] it was 0.99 nM; with integrin αVβ3 [7], 3.17 nM; with integrin αVβ6 [8] it was 17.1 nM.
hepcidin: used as a control peptide: the “effect on latent TGF-β1 activation (luciferase signal)” value in test [11] was “No significant variation was observed”.

A word on the IC50: it is the concentration that gives 50% inhibition. As a reminder, the Kd is the equilibrium constant for the complex coming apart.

These data come from PMC8080589, “Modulation of αVβ6 integrin in osteoarthritis-related synovitis and the interaction with VTN(381–397 a.a.) competing for TGF-β1 activation” (Experimental & Molecular Medicine, 2021).
